Results reported in PMC9811221 (2022).

B1: VHH22 (VHH)
VHH: EVQLVESGGGLVQAGGSLKLSCAASGRTFSGNTMGWFRQAPGKERELVTVVSSGGSTYYSDSVKGRFTISRDNALNTVYLQMNSLKPEDTAVYYCAAASLISGLTTTRRLFDYWGQGTQVTVSS
B2: VHH2 (VHH)
VHH: QVQLVESGGGSVQPGGSLRLSCAASGSIVGHAVQAWYRQAPGKQRDLVAQLFDNGKTNIADSVKGRFTISGDNAKNTFYLQMNNLKPEDTAIYYCAILILPSMGVPPNIYEGQGTQVTVSS
B3: VHH18 (VHH)
VHH: EVQLVESGGGWVQTGGSLRLSCAASGSTFDIKRMAWYRQAPGKEREFVADIWSEGSTHYADSVKGRFTISRDSAKNTMYLYMNSLKPEDTAVYYCNVEYVLRTYWGQGTQVTVSS
B4: VHH20 (VHH)
VHH: EVQLVESGGGSVQAGGSLRLSCVASGIAFSESPMAWYRQAPGRQREFVADVSADNKPYYRDTLKGRFTISRDNDKNSVYLQMNFLQPEDTAVYYCNALLLEAGTIKNYWGQGTQVTVSS
B5: VHH17 (VHH)
VHH: EVQLVESGGGLVQAGGSLRLSCAASGRTFSAYAMGWFRQAPGKERELVAGISWSGGMTYYADSVKGRFTISRDNAKNMVYLQMNSLKAEDTAVYYCAGGFSAVVPDHPDEYHYWGQGTQVTVSS
B6: VHH19 (VHH)
VHH: EVQLVESGGGSVQAGASLRLSCAASGFPFSHYAIGWFRQAPGKEREFVTSIDRSGINTYYADSVKGRFTISRDNAKNAVSLQMNSLKPDDTAVYYCAAGPRLVTSPELYPYWGQGTQVTVSS
B7: VHH14 (VHH)
VHH: EVQLVESGGGLVQAGDSLRLSCTASARTFIKYAMGWFRQAPGKEREFVAAISWSGSRTTYADSVKGRFTISRDNDKNTVYLQMNTLEPEDTAIYYCAKAKGGYHSSQYDYDYWGQGTQVTVSS
B8: VHH21 (VHH)
VHH: EVQLVESGGGLVQTGGSLRLSCAASGRTFDSYFMGWFRQAPGKEREFVAAISGSGSLTSYEDGVKGRFTISRDNAKNTVSLQMTNLKPEDTAVYYCASCLSCAFINGRQVDSRYYNYWGQGTQVTVSS
B9: VHH13 (VHH)
VHH: EVQLVESGGGLVQPGGSLRLSCAASGSTFSINAMGWYRQAPGKQRELVAAISSGGSTNYADSVKGRFTISRDNAKNTVYLQMNSLKPEDTAVYYCNTINIGTFISLGGSPLGSWGQGTQVTVSS
B10: VHH16 (VHH)
VHH: QVQLVESGGGWVQTGGSLRLSCAASGSTFDIKRMAWYRQAPGKEREFVADIWSEGSTHYADSVKGRFTISRDSAKNTMYLQMNSLKPEDTAAYYCNVGNTWGQGTQVTVSS
B11: VHH10 (VHH)
VHH: EVQLVESGGGLVQAGDSLRLSCAASGRAFSGYAMAWFRQAPEKEREFVAAITWRGGTPYYAVRAKGRFTISRDSAKNTAYLEVNSLKPEDTATYYCAAPSLQVATMDVKDYAYWGQGTLVTVSS

Biological target: PD-L1-Fc fusion protein (Invitrogen) (human, UniProt Q9NZQ7 19-238)
Experiment: BLI

Chain of PD-L1-Fc fusion protein (Invitrogen) (Q9NZQ7 19-238): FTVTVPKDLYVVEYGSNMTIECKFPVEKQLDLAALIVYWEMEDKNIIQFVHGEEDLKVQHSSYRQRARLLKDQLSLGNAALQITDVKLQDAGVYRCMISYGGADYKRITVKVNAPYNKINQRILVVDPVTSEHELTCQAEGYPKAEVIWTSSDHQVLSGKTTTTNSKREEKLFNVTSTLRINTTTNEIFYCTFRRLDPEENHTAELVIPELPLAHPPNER

| Binder | Kd |
| --- | --- |
| B1 | 2700 nM |
| B2 | 2200 nM |
| B3 | 720 nM |
| B4 | 340 nM |
| B5 | 330 nM |
| B6 | 1600 nM |
| B7 | 290 nM |
| B8 | 5100 nM |
| B9 | 1300 nM |
| B10 | 180 nM |
| B11 | 190 nM |
